Residue numbers refer to the chain shown, from its start.
Key:
[1] = biological target: neurofibromin 2 tail tail (Homo sapiens) (UniProt P35240); conditions: cited from earlier work
[2] = biological target: T1, neurofibromin 2 (full-length, GST-tagged) (Homo sapiens, UniProt P35240, A585W/R588K); assay: microscale thermophoresis; assay type: binding; conditions: 20 mM Tris pH 7.5, 300 mM NaCl, 0.01% Tween-20, room temperature; protein labelled with maleimide NT-647
T1 construct: gene NF2; full-length, residues 1-595, N-terminal GST tag kept (pGEX-6P-1), E. coli BL21(DE3) Rosetta2
T1 sequence (P35240 1-595 A585W/R588K): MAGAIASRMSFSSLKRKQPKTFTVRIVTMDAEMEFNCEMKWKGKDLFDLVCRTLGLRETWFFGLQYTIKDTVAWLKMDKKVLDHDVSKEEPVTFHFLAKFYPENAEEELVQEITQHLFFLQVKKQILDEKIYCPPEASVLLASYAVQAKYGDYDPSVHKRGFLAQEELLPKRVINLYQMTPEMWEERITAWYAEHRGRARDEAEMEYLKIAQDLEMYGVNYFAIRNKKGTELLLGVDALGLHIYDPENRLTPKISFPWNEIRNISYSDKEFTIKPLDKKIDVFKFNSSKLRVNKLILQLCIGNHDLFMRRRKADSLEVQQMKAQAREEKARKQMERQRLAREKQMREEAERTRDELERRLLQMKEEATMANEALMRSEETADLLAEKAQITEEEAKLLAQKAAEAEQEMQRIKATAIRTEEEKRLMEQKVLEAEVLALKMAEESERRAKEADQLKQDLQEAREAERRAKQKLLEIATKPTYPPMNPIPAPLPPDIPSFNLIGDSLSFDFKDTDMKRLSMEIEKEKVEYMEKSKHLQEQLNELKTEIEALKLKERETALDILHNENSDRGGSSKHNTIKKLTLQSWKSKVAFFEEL

[3] = biological target: T2, N terminally GST-tagged full-length neurofibromin 2 lipid binding deficient mutant (T59V, W60E, R309Q, R310Q) (human, UniProt P35240 1-595, T59V | W60E | R309Q | R310Q, labeled with NT-647 red dye (maleimide conjugated cysteine reactive or NHS conjugated lysine reactive)); assay: MST; unlabeled LATS1 69-100 (2 mM) titrated into 5 uM NT-647-labeled GST-neurofibromin 2; 20 mM Tris pH 7.5, 300 mM NaCl, 0.01% Tween-20; room temperature; conditions: both partners purified
T2 construct: neurofibromin 2 (merlin), human, full length, residues 1-595, with four point mutations; Cloned into pGEX-6P-1; also called LBD; source: E. coli BL21(DE3) Rosetta2, purified (GST column); not shown: GST, N-terminal, kept
T2 sequence (looked up): T1 sequence (P35240 1-595 A585W/R588K) with T59V, W60E, R309Q, R310Q, W585A, K588R

[4] = biological target: T3, N terminally GST-tagged full-length neurofibromin 2, wild type (human, UniProt P35240 1-595, labeled with NT-647 red dye (maleimide conjugated cysteine reactive or NHS conjugated lysine reactive)); assay: as above; conditions: both partners purified
T3 construct: neurofibromin 2 (merlin), human, full length, residues 1-595; also called NF2; merlin; source: E. coli BL21(DE3) Rosetta2, purified (GST column); not shown: GST, N-terminal, kept
T3 sequence (looked up): T1 sequence (P35240 1-595 A585W/R588K) with W585A, K588R

[5] = biological target: T3, N terminally GST-tagged full-length …; assay: MST; as a1, but LATS1 69-100 titrated into the neurofibromin 2/PIP2 complex (in the presence of PIP2); conditions: both partners purified

Chain of neurofibromin 2 tail tail (Homo sapiens) (P35240 506-595): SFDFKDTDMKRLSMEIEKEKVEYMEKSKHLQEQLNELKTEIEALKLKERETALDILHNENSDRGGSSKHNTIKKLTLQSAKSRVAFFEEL

neurofibromin 2 head head (from UniProt P35240)
Kd [1]: 3 µM

CCCCCCCC(=O)OC[C@H](COP(=O)(O)O[C@@H]1[C@H](O)[C@H](O)[C@@H](OP(=O)(O)O)[C@H](OP(=O)(O)O)[C@H]1O)OC(=O)CCCCCCC [PIP2diC8]
microscale thermophoresis [2]: No binding was observed for the artificially closed A585W-R588K (AR) mutants to h PIP2

B1: LATS1 (residues 69-100) (domain or fragment, UniProt O95835 69-100, looked up)
chain: PKFGTHHKALQEIRNSLLPFANETNSSRSTSE
notes: Hippo pathway kinase LATS1, residues 69-100; it was unlabeled; also called LATS1 kinase; LAST1 residues 69-100
Kd [3]: 176 ± 34.5 µM | Kd [4]: 39.3 ± 4.25 µM | Kd [5]: 3.77 ± 0.72 µM

Reference: publication PMC5889391, “Lipid binding promotes the open conformation and tumor-suppressive activity of neurofibromin 2” (Nature Communications, 2018)
